# Reference: paper PMC5078848, “NtKRP, a kinesin-12 protein, regulates embryo/seed size and seed germination via involving in cell cycle progression at the G2/M transition” (Scientific Reports, 2016)
# T1: MBP-NtKRP-Motor (Nicotiana tabacum, UniProt A0A0D3QSP8)
# T1 construct: gene KRP; MBP-tagged motor domain, purified; motor 1-556 elsewhere
# T1 sequence (A0A0D3QSP8 55-470 limits assumed): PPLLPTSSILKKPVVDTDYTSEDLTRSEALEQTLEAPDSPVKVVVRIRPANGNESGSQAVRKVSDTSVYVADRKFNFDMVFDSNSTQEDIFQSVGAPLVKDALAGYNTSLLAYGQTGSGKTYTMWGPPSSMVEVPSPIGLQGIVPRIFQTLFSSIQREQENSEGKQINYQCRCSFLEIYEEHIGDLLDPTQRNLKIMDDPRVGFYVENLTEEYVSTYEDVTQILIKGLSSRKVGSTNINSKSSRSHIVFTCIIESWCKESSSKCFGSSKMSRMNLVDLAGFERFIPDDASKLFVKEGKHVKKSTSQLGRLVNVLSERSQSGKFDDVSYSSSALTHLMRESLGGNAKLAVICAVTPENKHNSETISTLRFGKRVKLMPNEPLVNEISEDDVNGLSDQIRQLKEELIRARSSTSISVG
# B1: NtKRP motor domain (recombinant motor protein, amino acids 1–556) (Nicotiana tabacum) (protein)
# chain: MSENRFLGNISASSIRNLLPKSVSTKKKLNSSRFKHKMNSENVAPIDPNIQITDPPLLPTSSILKKPVVDTDYTSEDLTRSEALEQTLEAPDSPVKVVVRIRPANGNESGSQAVRKVSDTSVYVADRKFNFDMVFDSNSTQEDIFQSVGAPLVKDALAGYNTSLLAYGQTGSGKTYTMWGPPSSMVEVPSPIGLQGIVPRIFQTLFSSIQREQENSEGKQINYQCRCSFLEIYEEHIGDLLDPTQRNLKIMDDPRVGFYVENLTEEYVSTYEDVTQILIKGLSSRKVGSTNINSKSSRSHIVFTCIIESWCKESSSKCFGSSKMSRMNLVDLAGFERFIPDDASKLFVKEGKHVKKSTSQLGRLVNVLSERSQSGKFDDVSYSSSALTHLMRESLGGNAKLAVICAVTPENKHNSETISTLRFGKRVKLMPNEPLVNEISEDDVNGLSDQIRQLKEELIRARSSTSISVGSNGYFRGPNVRESLNQLRVSLNRSLILPSIDNDREEEIHINEDDIKELQLQIDNLRGSHGDNSKETLEKKDSLKYSSGESEHYLSC
# notes: N-terminal motor domain fragment, residues 1-556 of 1194 (full length 134 kDa); recombinant
# Columns and labels:
# [1] = biological target: microtubules (polymerized tubulin, taxol-stabilised)
# [2] = biological target: T1, MBP-NtKRP-Motor; assay: microtubule co-sedimentation, SDS-PAGE; assay type: binding; settings: taxol-stabilised microtubules, PEM buffer with 1 mM MgCl2, pH 6.8; nucleotide 5 µM
# [3] = biological target: microtubules (polymerized tubulin, taxol-stabilised); assay: co-sedimentation; 100 uL with 25 ug taxol-stabilised MTs and 50 ug NtKRP-motor in PEM buffer pH 6.8; without nucleotide, with ATP or with AMPPNP; room temperature 30 min, 25,000 x g 20 min at 25 C; SDS-PAGE of supernatant and pellet, Coomassie
# [4] = substrate: Nc1ncnc2c1ncn2[C@@H]1O[C@H](COP(=O)(O)OP(=O)(O)OP(=O)(O)O)[C@@H](O)[C@H]1O; assay: isothermal titration calorimetry ATPase assay; assay type: biochemical, Nicotiana tabacum; settings: microtubules 4.4 µM (Methods print 1.67 µM MTs), 10 µM taxol, BRB80 with 1 mM MgCl2, 50 mM NaCl, pH 6.8, 25 °C
molecule,measurement,setting,value
recombinant NtKRP motor domain (amino acids 1–556) (domain or fragment),"K0.5,MT of the MT-stimulated ATPase activity of the motor domain (coupled enzyme assay, 1 mM ATP, 0-5 uM MTs)",[1],22 µM
Nc1ncnc2c1ncn2[C@@H]1O[C@H](COP(=O)(O)OP(=O)(O)NP(=O)(O)O)[C@@H](O)[C@H]1O [AMPPNP],"microtubule co-sedimentation, SDS-PAGE",[2],"nonhydrolyzable ATP analog AMPPNP was used in place of ATP, most of the fusion protein"
MBP-NtKRP motor domain fusion protein (domain or fragment),percent coprecipitated with MTs (absence of ATP),[3],50%
Nc1ncnc2c1ncn2[C@@H]1O[C@H](COP(=O)(O)OP(=O)(O)OP(=O)(O)O)[C@@H](O)[C@H]1O [ATP],"microtubule co-sedimentation, SDS-PAGE",[2],The addition of ATP significantly reduced the amount of the fusion protein co-sediment
B1,Km,[4],2.4 µM
same,kcat,[4],80.3 s⁻¹
